The values below are quoted from earlier work in PMC11431639.

For orientation: Kd means the equilibrium constant for the complex coming apart.

The target in one data set is INF2 DAD (Homo sapiens) (UniProt Q27J81).
Another data set concerns the target mDia1 DAD (Mus musculus) (UniProt O08808).

Sequence of mDia1 DAD (Mus musculus) (O08808 1174-1208): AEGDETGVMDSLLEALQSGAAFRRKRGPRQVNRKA
Sequence of INF2 DID (Q27J81 32-261): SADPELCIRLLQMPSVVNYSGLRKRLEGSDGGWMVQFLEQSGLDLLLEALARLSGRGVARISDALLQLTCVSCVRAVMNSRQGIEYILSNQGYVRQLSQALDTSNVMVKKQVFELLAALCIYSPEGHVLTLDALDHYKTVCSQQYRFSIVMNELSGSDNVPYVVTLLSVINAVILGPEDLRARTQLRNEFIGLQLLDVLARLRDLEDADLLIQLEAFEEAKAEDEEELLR
Sequence of INF2 DAD (Homo sapiens) (Q27J81 971-1000): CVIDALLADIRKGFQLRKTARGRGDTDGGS
Sequence of mDia1 DID (O08808 129-369): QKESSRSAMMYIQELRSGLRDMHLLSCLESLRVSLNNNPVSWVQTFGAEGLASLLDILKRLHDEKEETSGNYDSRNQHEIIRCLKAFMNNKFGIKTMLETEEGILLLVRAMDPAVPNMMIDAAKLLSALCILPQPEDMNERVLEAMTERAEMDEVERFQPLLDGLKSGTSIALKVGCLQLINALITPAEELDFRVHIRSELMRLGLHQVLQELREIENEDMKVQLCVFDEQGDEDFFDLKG

With INF2 DID (from UniProt Q27J81), the Kd with INF2 DAD (Homo sapiens) is 1.1 µM.

Turning to mDia1 DID (from UniProt O08808), the Kd with mDia1 DAD (Mus musculus) is 0.28 µM.
